In publication PMC4547048:

Substrate: CC(C)C[C@H](N)C(=O)Nc1ccc([N+](=O)[O-])cc1
Experiment: purified protein
Format: biochemical, Anopheles gambiae
Settings: 1 mM MnCl2, pH 7.5, 10 mM Tris-HCl, 150 mM NaCl, 25 °C

B1: AnAPN1 (near full-length recombinant, rFL-APN1) (Anopheles gambiae) (protein)
chain: PPYKSSGIYEEEPQLPGASDLSGGVASDEIGVAPAQAVDERYRLPTTSIPIHYDLHLRTEIHRNERTFTGTVGIQLQVVQATDKLVMHNRGLVMSSAKVSSLPNGVTGAPTLIGDVQYSTDTTFEHITFTSPTILQPGTYLLEVAFQGRLATNDDGFYVSSYVADNGERRYLATTQFESTSARMAFPCYDEPGLKATFTVSITHSLSYKAISNMPQKTTTDIETDMRTTFFEKTPAMSTYLLAFVVSDFQLRLSGAQRVYVRPNAFNEATFALEAGVKILKVLDDHLGIPYDTYMPKLDQIAIPDFAAGAMENWGLVTYREQALLFNPAVSTYRGKTNVATTIAHEYAHQWFGNLVSPEWWEYIWLNEGFATLYEFYALDMAYPGQEYWELFNQQVIQYAMGQDGQASTRPMNWNAATPGEISALFDRVAYDKSGSVLNMMRHVLGDDNWKAGLKAYLTDRALQGAVDEQLYAGLQSAIEGKGVLPNGVTVAQIMRTWTNEAGYPVLNVRRSYDTGDVIISQERFYNDRKVPNTNIWMIPYNYVHQAKADFNEFDDFQWLATKAARIETTVPANEWIVFNKQQVGYYRVNYDEHNWELITNALHENWASIHRLNRAQLIDDAYWLARSGRLDLRVALRFMTYLRNEREYAPWTAANVALTYFNNRLRGTAEYHNFLIFVDALIEDIYSLLTIDAVSPDDTLLHKYLVQTISTWACSMGYTDCLMKTAALLKAEASGTGPAVHPDIASVTYCYGMRSALESEFQYLYRKMMNSKNLAERTMLIDSLGCSNNKEFLKAFLTTALGSGTGVEINYRADERRRVVQAIYSGGRTGVDALIEFLMDPALVNEFVSTLSTSTLNSALSAIASRTNNVEEMNKLNALITALGSRVNSQTAANLRTTAQANLDWVNGFEGLMLSNFLAE
Km: 1840 µM
